Two proteins from PMC7326820, “Characterization of Purple Acid Phosphatase Family and Functional Analysis of GmPAP7a/7b Involved in Extracellular ATP Utilization in Soybean” (Frontiers in Plant Science, 2020) can be followed below.

Substrate in the data set: Nc1ncnc2c1ncn2[C@@H]1O[C@H](COP(=O)(O)OP(=O)(O)OP(=O)(O)O)[C@@H](O)[C@H]1O
Kind of data set: Pi release, Lineweaver-Burk plot. The data set is classed as biochemical, Glycine max. To be noted: pH and temperature not stated for kinetics (substrate tests in 45 mM Na-acetate pH 5.0).

B1: GmPAP7a (Glycine max) (protein)
chain: MASSLNQRMLFPLMFVIGMFCLMVTPSIAELPIFKHPPKKQQSLNILVLGDWGRKGTYNQSLVANQMGIVGEKLDIDFVISTGDNFYEDGLKGVDDPAFYQSFVDMYTAPSLQKTWYTVLGNHDYRGDVGAQLSPILKQKDSRWLCMRSFILDGEIVEFFFVDTTPFVEEYFTDPGEHTYDWEGVLPRLAYLSELLKDVDLALAQSKAKWKMVVGHHTINSAGHHGNTEELKQLLVPILEANDVDAYINGHDHCLQHIIDNNSGIHFITSGGGSKAWSGDVKPWKLEELKLYYDGQGFMSMQITKSKADIIFYDAFGKVLHTWSISKDRNVAAWI
As for B1, the Km was determined as 110 µM.

B2: GmPAP7b (Glycine max) (protein)
chain: MASSLNQRMVFPVMVVVGMFCLLVTPSIAELPRFKHPPKKQQSLNILVLGDWGRKGTYNQSLVANQMGIVGEKLDIDFVISTGDNFYEDGLKGVDDPAFYQSFIHMYTAPSLQKTWYTVLGNHDYRGDVEAQLSPILKQKDSRWLCMRSFILDGEIVEFFFVDTTPFVEEYFTDPGEHTYDWEGVLPRLAYVSKLLKDVDSALAQSKAKWKMVVGHHTINSAGHHGSTEDLKQLLVPILEANNVDAYINGHDHCLQHIIDNNNGIHFITSGGGSKAWSGDVKPWKLEELKLYYDGQGFMSMQITKSTAYIIFYDAFGKVLHTWSISKDRNVAAWI
With B2, the Km was determined as 66 µM.
